Where a chain is given by its changes, count along the chain named. Where two headings read alike, the source gives them in different places. Oligonucleotides are written 5' to 3', each unit as a sugar letter and its base; * is a phosphorothioate linkage, no mark a phosphodiester; rarer units and linkages stand in square brackets, end groups in braces. Plain capitals give the bases only. d = 2'-deoxy (DNA); r = 2'-OH (RNA); f = 2'-fluoro
B1: AMX202.H10: DNA SELEX 1 aptamer clone (nucleic acid)
chain: CTACCTACGATCTGACTAGCGGAATGAGAAGGCTGGTGGATTGCTCAGGTCTGCTGGCTGCTTACTCTCATGTAGTTCC
modifications: DNA, backbone and methylation of C not given here
notes: DNA SELEX 1 aptamer clone
B2: AMX202.A3: DNA SELEX 1 aptamer clone (nucleic acid)
DNA: B1 chain with A30G, G31C, G36A
modifications: DNA, backbone not given here
notes: DNA SELEX 1 aptamer clone
B3: AMX202.B8: DNA SELEX 1 aptamer clone (nucleic acid)
DNA: B1 chain with A29T, G31T, G36A
modifications: DNA, backbone not given here
notes: DNA SELEX 1 aptamer clone
B4: AMX202.D6: DNA SELEX 1 aptamer clone (nucleic acid)
DNA: B1 chain with G36A
modifications: DNA, backbone not given here
notes: DNA SELEX 1 aptamer clone
B5: AMX.236.G1 (nucleic acid)
chain: CTACCTACGATCTGACTAGCCTCAGATTGACTCCGGCTGACTTGTTTTAATCTTCTGAGTGCTTACTCTCATGTAGTTCC
modifications: DNA, backbone and methylation of C not given here
B6: AMX199.D8: DNA SELEX 1 aptamer clone (nucleic acid)
DNA: CTACCTACGATCTGACTAGCAAGGGGATTGGCTCCGGGTCTGGCGTGCTTGGCATCTTCGGCTTACTCTCATGTAGTTCC
modifications: DNA, backbone not given here
notes: DNA SELEX 1 aptamer clone
B7: AMX202.F6: DNA SELEX 1 aptamer clone (nucleic acid)
DNA: B6 DNA with T50C, T55C
modifications: DNA, backbone not given here
notes: DNA SELEX 1 aptamer clone
B8: AMX200.E10: DNA SELEX 1 aptamer clone (nucleic acid)
DNA: B6 DNA with T50C, T55C, C59T
modifications: DNA, backbone not given here
notes: DNA SELEX 1 aptamer clone
B9: AMX202.A8: DNA SELEX 1 aptamer clone (nucleic acid)
DNA: B6 DNA with T50C, T55C, C56T, T58C
modifications: DNA, backbone not given here
notes: DNA SELEX 1 aptamer clone

Assays:
[1] = test system: full length human vWF binding to lyophilized platelets; assay: Full length human von Willebrand Factor platelet binding assay (FACS); format: cell-based; conditions: 5 nM full length human vWF, lyophilized platelets, botrocetin; for Inhibition of full length hVWF binding in FACS assay, IC50 range: both bounds in nM
Description: The amount of vWF bound to fixed platelets can be measured with an antibody to vWF. The fluorescence signal from bound antibody incubated with a fluorescein conjugated secondary antibody is then detected and quantified by flow cytometry. The ability of an aptamer of the invention to block vWF binding to platelets is correlated with a reduction in fluorescence signal.
Aptamer potency to block human vWF binding to lyophilized platelets was assessed by flow cytometric analysis. Titrations of aptamers (0 nM, 0.1 nM to 1000 nM) were pre-incubated briefly with 5 nM of full length human vWF in FACS buffer (PBS plus 0.5% bovine serum albumin) at room temperature in a volume of 50 uL. Another 50 uL containing 5 uL of lyophilized platelets plus 1 uL of 0.1 U/uL of botrocetin in FACS buffer was added to aptamer/vWF. This reaction was allowed to proceed for 15 minutes at 37 degrees C. after which 200 uL of FACS buffer was added. Platelets were collected by a 6 minute spin at 1470 RCF and the supernatant was discarded. The pellets were resuspended in 100 uL of FACS buffer containing a 1:100 dilution of anti-vWF antibody and were incubated at room temperature for 30 minutes. After dilution with 200 uL of FACS buffer, the platelets were spun at 1470 RCF for 6 minutes and the supernatant was discarded. The pellets were resuspended in a 1:100 solution of anti-IgG2a-FITC antibody and were incubated in the dark for 30 minutes at room temperature. The entire 100 uL was diluted into 200 uL of FACS buffer and analyzed immediately by flow cytometric analysis in the FACSCAN. Artifactual data from contaminating debris was eliminated from the analysis by drawing a gate around the population of single and aggregated platelets. Mean fluorescent intensity (“MFI”) readings were quantified for each sample analyzed by flow cytometry. Background MFI was subtracted from all data points. Percent inhibition was reported by calculating the percent value of binding of full length human vWF to platelets in the presence of aptamer at a given concentration relative to binding in the absence of any aptamer (see FIG. 7). IC50 values were determined by fitting the percent inhibition of vWF binding to platelets as a function of aptamer concentration to the equation: % inhibition=% inhibitionmax/(1+IC50/aptamer conc.)

[2] = test system: full length human vWF (SEQ ID NO 7); assay: dot blot KD determination and extent of binding, full length human vWF; conditions: rRdY minimers; 8 point titration 0-300 nM; read-out: Full length human vWF KD;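 note: dot blot binding of aptamers to full length human vWF across a protein titration, incubated 30 minutes at room temperature in 1x DPBS with BSA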
[3] = target: human vWF A1 domain (SEQ ID NO 5) (Homo sapiens, UniProt P04275, T1381A); assay: 3-point dot blot screen, human vWF A1 domain; format: binding; conditions: DNA SELEX 1 aptamers; 100 nM human vWF A1 domain; ratio of fraction bound with target to without
Sequence of human vWF A1 domain (SEQ ID NO 5) (P04275 with tags, fused parts or gaps T1381A): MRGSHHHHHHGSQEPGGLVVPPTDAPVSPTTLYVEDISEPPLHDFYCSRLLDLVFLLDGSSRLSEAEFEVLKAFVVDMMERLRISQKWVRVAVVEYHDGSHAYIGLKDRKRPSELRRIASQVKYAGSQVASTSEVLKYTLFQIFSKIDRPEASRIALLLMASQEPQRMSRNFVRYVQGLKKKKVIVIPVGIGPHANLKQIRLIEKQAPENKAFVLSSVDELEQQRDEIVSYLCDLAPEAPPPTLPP
From the text: (§1) When a significant positive ratio of binding of RNA in the presence of human or rabbit vWF A1 domain versus in the absence of protein was seen, the pools were cloned using the TOPO TA cloning kit (Invitrogen, Cat. #45-0641, Carlsbad, Calif.) according to the manufacturer's instructions. Round 9 and 12 pool templates were cloned and sequenced (125 total sequences), producing 48 unique clones. All unique clones were transcribed, desalted, 5-^32P end-labeled, and assayed in a 3-point dot blot screen (no protein target control, 100 nM human vWF A1 domain (SEQ ID NO 5, FIG. 3), or 100 nM rabbit vWF A1 domain (SEQ ID NO 6, FIG. 3). The data is presented in the third and fourth columns of Table 4 below as the ratio of the fraction of the aptamer bound to the nitrocellulose in the presence of the target protein to the fraction of aptamer bound in the absence of the target protein.
(§2) When a significant positive ratio of binding of RNA in the presence of human or rabbit vWF A1 domain (SEQ ID NOS 4 and 6, respectively) versus in the absence of protein was seen, the pools were cloned using the TOPO TA cloning kit (Invitrogen Cat. #45-0641, Carlsbad, Calif.) according to the manufacturer's instructions. Round 9 and 12 pool templates were cloned and sequenced (185 total sequences), producing 78 unique clones within 3 sequence families. All unique clones were transcribed, desalted, 5-^32P end-labeled, and assayed in a 3-point dot blot screen (no protein target control, 100 nM human vWF A1 domain (SEQ ID NO 5), or 100 nM rabbit vWF A1 domain (SEQ ID NO 6). The data are presented in the third and fourth columns of Table 9 below as the ratio of the fraction of the aptamer bound to the nitrocellulose in the presence of the target protein to the fraction of aptamer bound in the absence of the target protein. Of the three sequence families, members of Family #1 and #2 and two individual, non-family aptamers, bound to both human vWF domain A1 (SEQ ID NO 5) and rabbit vWF domain A1 (SEQ ID NO 6).
(§3) All unique clones were assayed in a 3-point dot blot screen (no protein target control, 100 nM human vWF A1 domain (SEQ ID NO 5), or 100 nM rabbit vWF A1 domain (SEQ ID NO 6). The data are presented in the third and fourth columns of Table 14 below as the ratio of the fraction of the aptamer bound to the nitrocellulose in the presence of the target protein to the fraction of aptamer bound in the absence of the target protein.

[4] = test system: rabbit vWF A1 domain (SEQ ID NO 6); assay: 3-point dot blot screen, rabbit vWF A1 domain; format: binding; conditions: DNA SELEX 1 aptamers; 100 nM rabbit vWF A1 domain; ratio of fraction bound with target to without
Sequence of rabbit vWF A1 domain (SEQ ID NO 6) (as listed by the source): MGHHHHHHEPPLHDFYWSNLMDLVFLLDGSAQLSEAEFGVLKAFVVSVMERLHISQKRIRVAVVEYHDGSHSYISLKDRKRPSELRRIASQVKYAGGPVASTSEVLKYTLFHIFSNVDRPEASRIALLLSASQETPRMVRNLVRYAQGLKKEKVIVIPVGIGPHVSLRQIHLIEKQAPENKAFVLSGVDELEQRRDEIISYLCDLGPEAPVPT
From the text: as §1, §2, §3
When a significant positive ratio of binding of DNA in the presence of human or rabbit vWF A1 domain versus in the absence of protein was seen, the pools were cloned using the TOPO TA cloning kit (Invitrogen Cat. #45-0641, Carlsbad, Calif.) according to the manufacturer's instructions. Round 7 and 11 pool templates were cloned and sequenced (218 total sequences), producing 146 unique clones within 12 sequence families of which sequences from six families show vWF target binding activity. All unique clones were assayed twice in a 3-point dot blot screen (no protein target control, 20 nM full length human vWF (Calbiochem Cat. #681300, La Jolla, Calif.), or 20 nM rabbit vWF A1 domain. The data is presented in the third and fourth columns of Table 17 below as the ratio of the fraction of the aptamer bound to the nitrocellulose in the presence of the target protein to the fraction of aptamer bound in the absence of the target protein.

[5] = read-out: Inhibition of full length hVWF binding in FACS assay, Average IC50
[6] = units in the cell: lower bound pM, upper bound nM, read-out: Inhibition of full length hVWF binding in FACS assay, IC50 range

Molecule	IC50 [1, 5] [pM]	Screen- Human/No Protein [3]	Screen- Rabbit/No Protein [4]	further results
GGACCACCCUCGCAAGCAUUGAGAAAUGACUUGUGCCGCUGGUCC (rGrGrAfCfCrAfCfCfCfUfCrGfCrArArGfCrAfUfUrGrArGrArArAfUrGrAfCfUfUrGfUrGfCfCrGfCfUrGrGfUfCfC) [SEQ ID NO 172, minimized rRfY aptamer]	4300	–	–	–
GGACCACCCUCGCAAGCAUUUUAAGAAUGACUUGUGCCGCUGGUCC (rGrGrAfCfCrAfCfCfCfUfCrGfCrArArGfCrAfUfUfUfUrArArGrArAfUrGrAfCfUfUrGfUrGfCfCrGfCfUrGrGfUfCfC) [SEQ ID NO 169, minimized rRfY aptamer]	6900	–	–	IC50 [1, 6]: 103 to 17000 pM
GGAGCCACACGACATTGGCGAGAGCCACGCATGGCTCC (chemistry not given here) [SEQ ID NO 194, minimized rRdY aptamer]	–	–	–	Inhibition of full length hVWF binding in FACS assay, IC50 range [1]: no activity
GGAGCCACACGACATTGGCGGGTTGTAATTACCACGCATGGCTCC (rGrGrArGdCdCrAdCrAdCrGrAdCrAdTdTrGrGdCrGrGrGdTdTrGdTrArAdTdTrAdCdCrAdCrGdCrAdTrGrGdCdTdCdC) [SEQ ID NO 189, minimized rRdY aptamer]	1100	–	–	IC50 [1, 6]: 564 to 1600 pM; Kd [2]: 1 nM
GGAGCCACACGAGAGTGGCGGGTTGTAATTACCACGCATGGCTCC (chemistry not given here) [SEQ ID NO 196, minimized rRdY aptamer]	–	–	–	Inhibition of full length hVWF binding in FACS assay, IC50 range [1]: no activity
GGAGCGCACTCAGCCACACGACATTGGCGGGTTGTAATTACCACGCATGGCTG (chemistry not given here) [SEQ ID NO 186, minimized rRdY aptamer]	1300	–	–	IC50 [1, 6]: 971 to 2200 pM
GGAGCGCACTCAGCCACGGGGTGGGTAGACGGCGGGTATGTGGCT (chemistry not given here) [SEQ ID NO 177, minimized rRdY aptamer]	3000	–	–	–
GGAGCGCACUCAGCCACCCUCGCAAGCAUUUUAAGAAUGACUUGUGCCGCUGGCU G (rGrGrArGfCrGfCrAfCfUfCrArGfCfCrAfCfCfCfUfCrGfCrArArGfCrAfUfUfUfUrArArGrArAfUrGrAfCfUfUrGfUrGfCfCrGfCfUrGrGfCfUrG) [SEQ ID NO 165, minimized rRfY aptamer]	6400	–	–	IC50 [1, 6]: 562 to 14400 pM
GGAGCTCCAGTGTTTTATCTAATAACCGTGCGGTGCCTCCGTGAGCTCC (chemistry not given here) [SEQ ID NO 209, minimized DNA aptamer]	–	–	–	Inhibition of full length hVWF binding in FACS assay, IC50 range [1]: no activity
GGAGCTGCGGTTTGGTCGACGTCAGCTCC (DNA, backbone not given here) [SEQ ID NO 210, minimized DNA aptamer]	–	–	–	Inhibition of full length hVWF binding in FACS assay, IC50 range [1]: no activity
GGTAGCGACTCTGTGGAGCTGCGGTTTGG (DNA, backbone not given here) [SEQ ID NO 211, minimized DNA aptamer]	–	–	–	Inhibition of full length hVWF binding in FACS assay, IC50 range [1]: no activity
B1	–	1.92	1.76	–
B2	–	2.28	2.10	–
B3	–	1.66	1.41	–
B4	–	1.94	1.55	–
B5	46000	–	–	–
B6	–	1.89	2.00	–
B7	–	1.49	1.46	–
B8	–	1.69	1.82	–
B9	–	1.27	1.27	–
